Assay results as given in patent US20240269285A1 (University of Texas, published 2024).

T1: human CD70 (human, UniProt P32970 1-193)
T1 construct: whole, on cells; also called CD70 antigen; CD27 ligand
T1 sequence (looked up): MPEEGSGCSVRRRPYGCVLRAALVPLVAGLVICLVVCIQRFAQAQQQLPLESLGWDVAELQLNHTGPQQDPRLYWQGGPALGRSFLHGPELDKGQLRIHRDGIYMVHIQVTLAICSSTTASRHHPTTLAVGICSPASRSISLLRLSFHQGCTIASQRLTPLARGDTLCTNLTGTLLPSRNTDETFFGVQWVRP


Molecular target: T1, human CD70
Assay: flow cytometry on CBNK cells, Raji WT cells and Raji CD70 KO cells
Protocol: Flow cytometry assay was conducted to detect the binding of various ml, m5, m6, m7, m14, m15, m16, m19, and m22 clones CD70 antibody clones to CD70 antigen expressed in various cells.

Binder | binding result
m7 monoclonal anti-human CD70 antibody clone (antibody, V domains shown, Purified monoclonal antibody; Detected with a goat anti-mouse IgG-HRP secondary antibody; also called m7-CD70) VH: QVQLKQSGPGLVQPSQSLSITCTVSGFSLTSYGVHWVRQSPGKGLEWLGVIWSGGSTDYNAAFISRLSISKDNSKSQVFFKMNSLQANDTAIYYCATYYRYDGWFAYWGQGTLVTVSA VL: DIVLTQSPASLAVSLGQRATISCRASKSVSTSGYSYMHWYQQKPGQPPKLLIYLASNLESGVPARFSGSGSGTDFTLNIHPVEEEDAATYSCQHSRELPWTFGGGTKLEIK | binds
m14 monoclonal anti-human CD70 antibody clone (antibody, V domains shown, Purified monoclonal antibody; Detected with a goat anti-mouse IgG-HRP secondary antibody; also called m14-CD70) VH: EVQLQQSGAELVKPGASVKLSCTASGFNIKDSYMHWVKQRPEQGLEWIGRIDPANANPKYDPKFQGKATITTDTSSNTAYLQLSSLTSEDTAVYYCARDYGGYFDVWGAGTTVTVSS VL: DIQMTQSSSYLSVSLGGRVTITCKASDHINNWLAWYQQKPGNAPRLLISGATSLETGVPSRFSGSGSGKDYTLSITSLQTEDVATYYCQQYWSTPWTFGGGTKLEIK | binds
